Data: patent publication US20230295310A1 (ABCELLERA BIOLOGICS, published 2023)
Positions count from the first letter of the chain named.

B1: mAb 55 (antibody, V domains shown)
VH: QVQLEQSGAEVKKPGASVKVSCKTSGYIFANYDINWVRQATGQGLEWMGWMNPKSGKAGYAQKFQGRVTMTSNTPINTAYMELSSLRSEDTAVYYCAREGHYDFWRGFYSFDYWGQGILVTVSS
VL: DIQMTQSPSSLSASVGDRVTITCRASQGIRNDLGWYQQKPGKAPKRLIYTASSLQSGVPSRFSGSGSGTEFTLTISSLQPEDFATYFCLQYNTYPYTFGQGTKLEIK
B2: mAb 71 (antibody, V domains shown)
VH: QVQLVQSGAEVRKPGASVKVSCKASGYTFTKYDVNWVRQAPGQGLEWMGWMNSNNGNIGYAQKFQGRVTMTRKTSISTAYMELSSLRSEDTAVYYCAREGHYDFWRGFYNFDYWGQGTLVTVSS
VL: B1 VL with G28D, R30K, T50A, F87Y, Y91H, T93F, Y96I, K103R
B3: mAb 43 (antibody, V domains shown)
VH: QAQLVQSGSELKKPGASVKVSCKASGYTFTKHSMNWVRQAPGQGLEWMGWINTNTGNPMYAQGFTGRFVFSLDTSVTTAYLQISSLKAEDTAVYYCAREGDYDFWSGFFNFDYWGQGTLVTVSS
VL: B1 VL with T50A, T69A, F87Y, Y91H, T93S, Y96R, L104V
B4: mAb 74 (antibody, V domains shown)
VH: EVQLVESGGGLVQPGRSLRLSCAASGFTFADYVMHWVRQAPGKGLEWVSGINWNNARIGYVGSVKGRFTISRDNAKNSLYLQMTSLRVEDTALYHCVREGNFDFWSAYYRGFLDLWGRGTLVTVSS
VL: B1 VL with N31S, T50G, S56G, F87Y, Y91H, T93S
B5: mAb 73 (antibody, V domains shown)
VH: EVELVESGGGLVQPGRSLRLSCAASGFTFDDKVMHWVRQAPGKGLEWVSCINWNSGHIGYADSVKGRFTISRDNARTSLYLQMNSLRPEDTALYYCVREGNYDFWSGYYRGFFDLWGRGTLVTVSS
VL: B1 VL with T50A, S56G, F87Y, Y91H, N92T, T93S, Y96F
B6: mAb 67 (antibody, V domains shown)
VH: EVQLVESGGDLVQPGRSLRLSCAASGFTFDDCVIHWVRQAPGKGLEWVSGITWNSGRIGYADSVKGRFTISRDNAKNSLYLQMNSLRVEDTALYYCAKEGNYDFWSTYYRGYFDLWGRGTLVTVSS
VL: B1 VL with K42I, T50A, S56G, S60L, F87Y, Y91H, T93S
B7: mAb 54 (antibody, V domains shown)
VH: EVQLEESGGGLVQPGGSLRLSCAASGFTFSRYSMNWVRQAPGKGLEWFSYISSSSRTIYYADSVKGRFTMSRDNAKNSLYLQMNSLRDEDTAVYFCARGDYYDSEGMDVWGKGTTVTVSS
VL: DIQMTQSPSTLSASVGDRVTITCRASQTITTWLAWYQQKPGKAPKLLIYKASTLESGVPSRFSGSGSGTEFTLTISSLQPDDFATYHCQQYKTFSYTFGQGTKLDIK
B8: mAb 68 (antibody, V domains shown)
VH: EVQLVDSGGGLVQPGGSLRLSCSGSGFTFSSYWMSWVRQAPGKGLEWVANIKQDGSQKYYVDSVKGRFTISRDNVKNSLYLQMNSLRVEDTAVYYCARDESSSWYWYFDLWGRGTLVTVSS
VL: DIQMTQSPSTLSASVGDRVTLTCRASQNIVKWLAWYQQKPGKAPKLLIYKASSLESGVPSWFSGSGSGTEFTLTINSLQPDDFATYYCQQYYTYSRTFGQGTKVEIK
B9: mAb 72 (antibody, V domains shown)
VH: B8 VH with S23A, G24A, Q57E, Y80S, Q82E, V88A, V93L
VL: B8 VL with L21I, N28S, V30S, S56N, W61R, N76S, Y92S, T93S
B10: mAb 66 (antibody, V domains shown)
VH: QVQLVQSGAEVKKPGASVKVSCKASGYTVTGYYMHWVRQAPGQGLEWMGWINPNSGGTNFAQNFQGRVTMTRDTSISTFYMDLSRLRSDDTAVYYCARGGAPVSYWFFDLWGRGTLVTVSS
VL: DIQMTQSPSSLSASVGDRVTITCRASQSISRYLNWYQQKPGKAPKVLIYNTSSLKSGVPSRFSGSGSGTDFTLTISSLQPEDFATLYCQQSHSTPFTFGPGTKVDIK
B11: mAb 85 (antibody, V domains shown)
VH: B10 VH with S84N
VL: B10 VL with A84G, L86F
B12: mAb 79 (antibody, V domains shown)
VH: B10 VH with T28I, Q43H, S84N, R87T
VL: B10 VL with S28N, S30N, R31S, Q37H, S53T, D70Y, L86F
B13: mAb 174 (antibody, V domains shown)
VH: EVQLVESGGGLVQPGGSLRLSCAASGFTFSSNWMSWVRQAPGKGLEWVANIKQDGSEKYSVDSVKGRFTISRDNAKNSLYLQMNSLRAEDTAVYYCARDRSRNYYWYFDLWGRGTLVTVSS
VL: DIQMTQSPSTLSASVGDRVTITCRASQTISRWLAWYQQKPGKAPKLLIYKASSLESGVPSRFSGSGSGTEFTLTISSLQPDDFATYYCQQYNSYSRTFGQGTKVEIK
B14: mAb 175 (antibody, V domains shown)
VH: B13 VH with Q3E, S60Y, Q82K, R100C, R102S, Y104W
VL: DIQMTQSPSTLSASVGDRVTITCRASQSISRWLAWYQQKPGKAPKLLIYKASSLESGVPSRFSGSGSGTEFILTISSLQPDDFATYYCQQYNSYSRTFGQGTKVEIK
B15: mAb 78 (antibody, V domains shown)
VH: B13 VH with N32Y, S60Y, R100N, R102P, N103S, Y104F
VL: B8 VL with L21I, N28S, I29L, V30S, K31R, W61R, N76S
B16: mAb 77 (antibody, V domains shown)
VH: B13 VH with S31N, N32Y, S60Y, K65R, N77K, R100N, R102N, N103Y, Y104A, L110I
VL: B8 VL with A13V, L21I, N28S, V30R, Y49F, W61R, N76S, Y92D
B17: mAb 173 (antibody, V domains shown)
VH: EVQLVESGGGLVQPGRSLRLSCAASGFTFDDYTMHWVRQVPGKGLEWVSDISWNSGSVGYADSVKGRFTISRDNAKNSLYLQMNSLRAEDTALYYCVKDSSGYGHYFHYYMDVWGKGTTVTVSS
VL: DIQMTQSPSSLSASVGDRVTITCRASQSISNYLNWYQVKPGKAPKVLIYAASSLQSGVPSRFSGSGSGTDFTLTISSLQPEDFVSYYCHQSYNTPITFGQGTRLEIK
B18: mAb 179 (antibody, V domains shown)
VH: B17 VH with V40T, V58I, S78T, F107L, H108Y
VL: DIQMTQSPSSLSASVGDRVTITCRASQSIRNYLNWYQQSPGRAPKLLIFSASSLQSGVPSRFSGSGSGTDFTLTISSLQPEDFVTYYCQQRYSTPITFGQGTRLEIK
B19: mAb 178 (antibody, V domains shown)
VH: B17 VH with V40A, S57T, V58I, F107Y, H108K
VL: DIQMTQSPSSLSASVGDRVTITCRASQSISNYLNWYQQKAGKVPKVLIYGSSSLQSGVPSRFSGSGSGTDFTLTISSLQPEDFASYYCQQTYSSPLTFGGGTKVDFK
B20: mAb 180 (antibody, V domains shown)
VH: B17 VH with Q3N, D50N, V58L, N77D, A88V, V97A, F107N, H108S
VL: B18 VL with S39K, R42K, L46V, F49Y, V84A, T85S, Y86F, R91T
B21: mAb 176 (antibody, V domains shown)
VH: EVELVESGGGLVQPGRSLRLSCAASGFKFDDYTMHWVRLPPGKGLEWVSGISWNSGTIDYGDSVKGRFTISRDNAKNSLYLQMNSLRVEDTALYYCAKDTSGYGHYFYYYMDVWGKGTTVTVSS
VL: DIQMTQSPSSLSASIGDRVSITCRTSQIINNYLNWYQQKPGKAPKVLIYSASSLQSGVPSRFSGSGSGTDFTLTINSLQPEDFATYYCQQSYNFPITFGQGTRLELK
B22: mAb 177 (antibody, V domains shown)
VH: EVQLVESGGGLVQPGMSLRLSCAASGFTFDDYTMHWVRQSPGKGLEWVAGISWNSGTIGYGDSMKGRFTISRDNAKNSLDLQMNSLRVEDTALYYCAKDTSGYGHYYYYFMDVWGKGTTVTVSS
VL: B21 VL with V46L, I75L, N76S, Y87F

Each binder was assayed against human CD3 (human, UniProt P07766 23-207; P04234 22-171; P09693 23-182) (assay: cell-based or functional assay).
human CD3, sequence (P07766 23-207, chain 1 of 3): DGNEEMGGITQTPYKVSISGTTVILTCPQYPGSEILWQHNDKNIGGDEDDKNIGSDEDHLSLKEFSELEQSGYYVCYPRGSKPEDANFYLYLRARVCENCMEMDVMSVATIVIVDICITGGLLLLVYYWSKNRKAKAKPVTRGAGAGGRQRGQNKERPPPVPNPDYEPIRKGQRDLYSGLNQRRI
human CD3, sequence (P04234 22-171, chain 2 of 3): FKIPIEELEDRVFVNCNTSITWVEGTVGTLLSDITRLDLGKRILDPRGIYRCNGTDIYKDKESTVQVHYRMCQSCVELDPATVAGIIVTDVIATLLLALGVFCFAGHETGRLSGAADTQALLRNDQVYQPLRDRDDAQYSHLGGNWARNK
human CD3, sequence (P09693 23-182, chain 3 of 3): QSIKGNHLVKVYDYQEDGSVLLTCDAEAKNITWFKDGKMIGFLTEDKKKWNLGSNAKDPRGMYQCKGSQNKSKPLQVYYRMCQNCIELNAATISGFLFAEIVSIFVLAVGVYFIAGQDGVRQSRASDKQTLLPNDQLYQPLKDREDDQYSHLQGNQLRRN
B1 was tested, and the “CD4 EC50 (nM); CD69/CD25 on human T cells, plate-coated antibody” value (from here on “CD4 EC50 (nM); CD69/CD25”) was 8.54 nM and the “CD8 EC50 (nM); CD69/CD25 on human T cells, plate-coated antibody” value (from here on “CD8 EC50 (nM); CD69/CD25”) was 8.91 nM. With B2 the “CD4 EC50 (nM); CD69/CD25” value was 19.3 nM and the “CD8 EC50 (nM); CD69/CD25” value was 19.2 nM. In the case of B3, the “CD4 EC50 (nM); CD69/CD25” value is reported as 24.6 nM and the “CD8 EC50 (nM); CD69/CD25” value is reported as 25.6 nM. For B4, the “CD4 EC50 (nM); CD69/CD25” value was 20.9 nM and the “CD8 EC50 (nM); CD69/CD25” value was 19.6 nM. B5 was tested, and the “CD4 EC50 (nM); CD69/CD25” value was 24.8 nM and the “CD8 EC50 (nM); CD69/CD25” value was 23 nM. With B6 the “CD4 EC50 (nM); CD69/CD25” value was 22 nM and the “CD8 EC50 (nM); CD69/CD25” value was 21.3 nM. With B7 the “CD4 EC50 (nM); CD69/CD25” value was 13.3 nM and the “CD8 EC50 (nM); CD69/CD25” value was 15.2 nM. With B8 the “CD4 EC50 (nM); CD69/CD25” value was 12.5 nM and the “CD8 EC50 (nM); CD69/CD25” value was 12.6 nM. B9 was tested, and the “CD4 EC50 (nM); CD69/CD25” value was 16.4 nM and the “CD8 EC50 (nM); CD69/CD25” value was 18.2 nM. B10 was tested, and the “CD4 EC50 (nM); CD69/CD25” value was 13 nM and the “CD8 EC50 (nM); CD69/CD25” value was 13.2 nM. In the case of B11, the “CD4 EC50 (nM); CD69/CD25” value is reported as 9.43 nM and the “CD8 EC50 (nM); CD69/CD25” value is reported as 10.3 nM. For B12, the “CD4 EC50 (nM); CD69/CD25” value was 10.4 nM and the “CD8 EC50 (nM); CD69/CD25” value was 11 nM. In the case of B13, the “CD4 EC50 (nM); CD69/CD25” value is reported as 19.5 nM and the “CD8 EC50 (nM); CD69/CD25” value is reported as 19.4 nM. B14 was tested, and the “CD4 EC50 (nM); CD69/CD25” value was 21.6 nM and the “CD8 EC50 (nM); CD69/CD25” value was 21.2 nM. With B15 the “CD4 EC50 (nM); CD69/CD25” value was 12.2 nM and the “CD8 EC50 (nM); CD69/CD25” value was 12.2 nM. With B16 the “CD4 EC50 (nM); CD69/CD25” value was 12.9 nM and the “CD8 EC50 (nM); CD69/CD25” value was 13.1 nM. For B17, the “CD4 EC50 (nM); CD69/CD25” value was 12.5 nM and the “CD8 EC50 (nM); CD69/CD25” value was 12.3 nM. For B18, the “CD4 EC50 (nM); CD69/CD25” value was 10.4 nM and the “CD8 EC50 (nM); CD69/CD25” value was 9.87 nM. For B19, the “CD4 EC50 (nM); CD69/CD25” value was 12.6 nM and the “CD8 EC50 (nM); CD69/CD25” value was 12.6 nM. With B20 the “CD4 EC50 (nM); CD69/CD25” value was 6.54 nM and the “CD8 EC50 (nM); CD69/CD25” value was 6.57 nM. B21 was tested, and the “CD4 EC50 (nM); CD69/CD25” value was 6.38 nM and the “CD8 EC50 (nM); CD69/CD25” value was 6.37 nM. With B22 the “CD4 EC50 (nM); CD69/CD25” value was 14.3 nM and the “CD8 EC50 (nM); CD69/CD25” value was 14.2 nM.
